Patent US20250250334A1 (MEDICOVESTOR, published 2025)

Columns and labels:
[1] = target: T1, human FRalpha expressed on cells (transfected HEK293 cells; SKOV3 human ovarian cancer cells) (human, UniProt P15328 25-234); assay: flow cytometry, HEK293 cells transfected to express FRalpha
T1 construct: whole, on cells; also called human folate receptor alpha
Protocol: (§1) The affinity of each antibody was then assessed by flow cytometry. Briefly, HEK293 cells transfected to express FRalpha were washed with fluorescence-activated cell sorting (FACS) buffer, to which the IgGs were added at varying concentrations and incubated at 4 degrees Celsius for 60 minutes. The cells were then centrifuged and washed twice in FACS buffer. A phycoerythrin-labelled anti-human IgG, Fcgamma antibody (109-115-098; Jackson ImmunoResearch, Pennsylvania, United States) was then added to the cells at a 1:200 dilution and incubated at 4 degrees Celsius for 30 minutes. The cells were then washed, resuspended in FACS buffer, and counted by flow cytometry. Results are depicted in FIG. 4.

[2] = target: T2, fusion protein containing the extracellular domain of cynomolgus FRalpha and a polyhistidine tag (cynomolgus, UniProt A0A2K5U044 25-233); assay: ELISA, coated cynomolgus FRalpha ECD-His
T2 construct: extracellular domain; Coated on ELISA plates; also called cynomolgus FRalpha extracellular domain; not shown: polyhistidine tag
Protocol: (§2) The affinity of each IgG1 for FRalpha was confirmed by ELISA. Briefly, a fusion protein containing the extracellular domain of human FRalpha and a polyhistidine tag was used to coat ELISA plates, which were washed three times with phosphate-buffered saline (PBS) containing 0.1 percent polysorbate 20 (PBST), then blocked with PBS containing 5 percent powdered milk (PBSM), and then washed three more times with PBST. Wells were then incubated with antibodies at varying concentrations for 60 minutes at room temperature in 1 percent PBSM. Wells were then washed three times with PBST, after which the secondary, horseradish-peroxidase-conjugated antibody anti-human-IgG-Fc-HRP (ab97225, Abcam, United Kingdom) was added at a 1:8000 dilution in 1 percent PBSM for 50 minutes at room temperature. The wells were then washed six times with PBST, after which 3,3′, 5,5″-tetramethylbenzidine (TMB) was added. The reaction was stopped with 2 molar sulfuric acid, and the TMB diamine product was quantified at 450 nanometers in a plate reader. Results are depicted in FIG. 2.
The ELISA of the preceding paragraph was repeated with a fusion protein containing the extracellular domain of cynomolgus FRalpha and a polyhistidine tag. Results are depicted in FIG. 3.

[3] = target: T3, fusion protein containing the extracellular domain of human FRalpha and a polyhistidine tag (human, UniProt P15328 25-233); assay: ELISA, coated human FRalpha ECD-His
T3 construct: extracellular domain; Coated on ELISA plates; also called human FRalpha extracellular domain; not shown: polyhistidine tag
Protocol: as §2

[4] = target: T1, human FRalpha expressed on cells …; assay: flow cytometry, SKOV3 human ovarian cancer cells that express FRalpha
Protocol: as §1
The flow cytometry experiment of the preceding paragraph was repeated with a human ovarian cancer cell line that expresses FRalpha, SKOV3. Results are depicted in FIGS. 5A and 5B. […] The antibody according to SEQ ID NO: 3-12 was then designated the lead antibody for further development.

T1 sequence (P15328 25-234): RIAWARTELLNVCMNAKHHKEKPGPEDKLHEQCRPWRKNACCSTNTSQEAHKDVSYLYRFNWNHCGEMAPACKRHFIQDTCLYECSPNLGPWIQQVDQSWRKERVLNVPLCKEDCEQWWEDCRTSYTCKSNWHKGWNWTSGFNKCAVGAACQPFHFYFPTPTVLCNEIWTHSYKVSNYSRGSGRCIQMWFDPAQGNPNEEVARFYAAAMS
T3 sequence (P15328 25-233 limits assumed): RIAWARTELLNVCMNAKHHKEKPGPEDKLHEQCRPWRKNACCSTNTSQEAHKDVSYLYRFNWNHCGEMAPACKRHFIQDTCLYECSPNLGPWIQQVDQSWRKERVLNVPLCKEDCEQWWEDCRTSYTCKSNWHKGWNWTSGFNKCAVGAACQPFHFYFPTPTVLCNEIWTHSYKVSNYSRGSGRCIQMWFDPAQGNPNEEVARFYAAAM
T2 sequence (A0A2K5U044 entry or part of it): as the sequence (P15328 25-233 limits assumed) above, with I2T, W4R, R37K, A146P, H171Y counted along it

EC50 [1] | EC50 [2] | EC50 [3] | EC50 [4] | Binder
~4 nM | ~0.16 nM | ~0.12 nM | – | Mirvetuximab (antibody, V domains shown) VH: QVQLVQSGAEVVKPGASVKISCKASGYTFTGYFMNWVKQSPGQSLEWIGRIHPYDGDTFYNQKFQGKATLTVDKSSNTAHMELLSLTSEDFAVYYCTRYDGSRAMDYWGQGTTVTVSS VL: DIVLTQSPLSLAVSLGQPAIISCKASQSVSFAGTSLMHWYHQKPGQQPRLLIYRASNLEAGVPDRFSGSGSKTDFTLTISPVEAEDAATYYCQQSREYPYTFGGGTKLEIK
~5 nM | ~0.06 nM | ~0.05 nM | < 1 nM | lead fully-human anti-FRalpha IgG1 antibody (antibody according to SEQ ID NO: 3-12) (antibody, V domains shown, Fully human IgG1/kappa; also called lead antibody) VH: EVQLLESGGGLVKPGGSLRLSCAASGFTFSSYTMNWVRQAPGKGLEWVSSISSGGGYIYYADSVKDRFTISRDNAKNSLYLQMNSLRAEDTAVYYCAKGDTIMIISAWGQGTTVTVSS VL: DIQLTQSPSTLSASVGDRVTITCRASQSISSWLAWHQQKPGKAPKLLIYAASSLQNGVPSRFSGSGFGTDFTLTISSLQPEDFATYYCQQASSFPLTFGGGTKVEIKR
